Reference: US20100272750A1

What follows are binders tested against HLA A6801 (human) (assay: 125I-probe competition, purified HLA).
Binder VVLLLVRYK (modifications not checked) [HPV16.E1.274] has an IC50 of 76 nM.
STAAALYWYK (modifications not checked) [HPV16.E1.314] gave an IC50 of 6 nM.
ATMCRHYKR (modifications not checked) [HPV16.E1.406] was tested, and the IC50 was 35 nM.
In the case of SVICFVNSK (modifications not checked) [HPV16.E1.497], the IC50 is reported as 5.4 nM.
MVMLMLVRFK (modifications not checked) [HPV31.E1.253] gave an IC50 of 10 nM.
With STAAALYWYR (modifications not checked) [HPV31.E1.294] the IC50 was 12 nM.
With KVSEFRWYRY (modifications not checked) [HPV31.E6.72] the IC50 was 192 nM.
AVMCRHYKR (modifications not checked) [HPV45.E1.399] showed an IC50 of 29 nM.
STWHWTGCNK (modifications not checked) [HPV45.E2.322] was tested, and the IC50 was 18 nM.

Each binder was assayed against HLA A6802 (human) (assay: 125I-probe competition, purified HLA).
Work on CLYLHIQSL (modifications not checked) [HPV16.E1.259] yielded an IC50 of 1780 nM.
In the case of FVYIPLFLI (modifications not checked) [HPV16.E5.66], the IC50 is reported as 251 nM.
GTLGIVCPV (modifications not checked) [HPV16.E7.85.V9] was tested, and the IC50 was 32 nM.
Binder YTNWKFIYL (modifications not checked) [HPV31.E2.131] has an IC50 of 146 nM.
For FLLCFCVLL (modifications not checked) [HPV31.E5.15], the IC50 was 237 nM.
Binder FIYIPLFVI (modifications not checked) [HPV31.E5.66] has an IC50 of 157 nM.

What follows are binders tested against HLA A0201 (human) (assay: 125I-probe competition, purified HLA).
CLYLHIQSL (modifications not checked) [HPV16.E1.259] was tested, and the IC50 was 73 nM.
FVYIPLFLI (modifications not checked) [HPV16.E5.66] was tested, and the IC50 was 206 nM.
Binder GTLGIVCPV (modifications not checked) [HPV16.E7.85.V9] has an IC50 of 20 nM.
Binder YTNWKFIYL (modifications not checked) [HPV31.E2.131] has an IC50 of 69 nM.
Binder FLLCFCVLL (modifications not checked) [HPV31.E5.15] has an IC50 of 9.6 nM.
For FIYIPLFVI (modifications not checked) [HPV31.E5.66], the IC50 was 26 nM.

The binders below were run against HLA A0301 (human) (assay: 125I-probe competition, purified HLA).
With VVLLLVRYK (modifications not checked) [HPV16.E1.274] the IC50 was 6.3 nM.
For STAAALYWYK (modifications not checked) [HPV16.E1.314], the IC50 was 5 nM.
Work on ATMCRHYKR (modifications not checked) [HPV16.E1.406] yielded an IC50 of 90 nM.
Binder SVICFVNSK (modifications not checked) [HPV16.E1.497] has an IC50 of 109 nM.
Work on MVMLMLVRFK (modifications not checked) [HPV31.E1.253] yielded an IC50 of 10 nM.
STAAALYWYR (modifications not checked) [HPV31.E1.294] showed an IC50 of 198 nM.
In the case of KVSEFRWYRY (modifications not checked) [HPV31.E6.72], the IC50 is reported as 213 nM.
Work on AVMCRHYKR (modifications not checked) [HPV45.E1.399] yielded an IC50 of 311 nM.
Work on STWHWTGCNK (modifications not checked) [HPV45.E2.322] yielded an IC50 of 14 nM.

The binders below were run against HLA A0203 (human) (assay: 125I-probe competition, purified HLA).
Binder CLYLHIQSL (modifications not checked) [HPV16.E1.259] has an IC50 of 21 nM.
With FVYIPLFLI (modifications not checked) [HPV16.E5.66] the IC50 was 63 nM.
For GTLGIVCPV (modifications not checked) [HPV16.E7.85.V9], the IC50 was 68 nM.
YTNWKFIYL (modifications not checked) [HPV31.E2.131] gave an IC50 of 31 nM.
FLLCFCVLL (modifications not checked) [HPV31.E5.15] showed an IC50 of 34 nM.
For FIYIPLFVI (modifications not checked) [HPV31.E5.66], the IC50 was 47 nM.

Each binder was assayed against HLA A3301 (human) (assay: 125I-probe competition, purified HLA).
VVLLLVRYK (modifications not checked) [HPV16.E1.274] showed an IC50 of 6.1 nM.
Work on STAAALYWYK (modifications not checked) [HPV16.E1.314] yielded an IC50 of 128 nM.
For ATMCRHYKR (modifications not checked) [HPV16.E1.406], the IC50 was 17 nM.
In the case of SVICFVNSK (modifications not checked) [HPV16.E1.497], the IC50 is reported as 51 nM.
MVMLMLVRFK (modifications not checked) [HPV31.E1.253] gave an IC50 of 20 nM.
Work on STAAALYWYR (modifications not checked) [HPV31.E1.294] yielded an IC50 of 47 nM.
KVSEFRWYRY (modifications not checked) [HPV31.E6.72] gave an IC50 of 338 nM.
AVMCRHYKR (modifications not checked) [HPV45.E1.399] gave an IC50 of 24 nM.
Binder STWHWTGCNK (modifications not checked) [HPV45.E2.322] has an IC50 of 428 nM.

Each binder was assayed against HLA A3101 (human) (assay: 125I-probe competition, purified HLA).
Work on VVLLLVRYK (modifications not checked) [HPV16.E1.274] yielded an IC50 of 0.1 nM.
Work on STAAALYWYK (modifications not checked) [HPV16.E1.314] yielded an IC50 of 35 nM.
In the case of ATMCRHYKR (modifications not checked) [HPV16.E1.406], the IC50 is reported as 10 nM.
For SVICFVNSK (modifications not checked) [HPV16.E1.497], the IC50 was 25 nM.
STAAALYWYR (modifications not checked) [HPV31.E1.294] gave an IC50 of 5.6 nM.
KVSEFRWYRY (modifications not checked) [HPV31.E6.72] showed an IC50 of 3 nM.
Binder AVMCRHYKR (modifications not checked) [HPV45.E1.399] has an IC50 of 52 nM.
STWHWTGCNK (modifications not checked) [HPV45.E2.322] showed an IC50 of 54 nM.

Each binder was assayed against HLA A0202 (human) (assay: 125I-probe competition, purified HLA).
Work on CLYLHIQSL (modifications not checked) [HPV16.E1.259] yielded an IC50 of 45 nM.
Binder FVYIPLFLI (modifications not checked) [HPV16.E5.66] has an IC50 of 323 nM.
Binder GTLGIVCPV (modifications not checked) [HPV16.E7.85.V9] has an IC50 of 49 nM.
Binder YTNWKFIYL (modifications not checked) [HPV31.E2.131] has an IC50 of 14 nM.
With FLLCFCVLL (modifications not checked) [HPV31.E5.15] the IC50 was 13 nM.
Work on FIYIPLFVI (modifications not checked) [HPV31.E5.66] yielded an IC50 of 97 nM.

Each binder was assayed against HLA A1101 (human) (assay: 125I-probe competition, purified HLA).
In the case of VVLLLVRYK (modifications not checked) [HPV16.E1.274], the IC50 is reported as 4.1 nM.
In the case of STAAALYWYK (modifications not checked) [HPV16.E1.314], the IC50 is reported as 2 nM.
Work on ATMCRHYKR (modifications not checked) [HPV16.E1.406] yielded an IC50 of 14 nM.
With SVICFVNSK (modifications not checked) [HPV16.E1.497] the IC50 was 2.2 nM.
Binder STAAALYWYR (modifications not checked) [HPV31.E1.294] has an IC50 of 10 nM.
With KVSEFRWYRY (modifications not checked) [HPV31.E6.72] the IC50 was 25 nM.
With AVMCRHYKR (modifications not checked) [HPV45.E1.399] the IC50 was 38 nM.
In the case of STWHWTGCNK (modifications not checked) [HPV45.E2.322], the IC50 is reported as 2.8 nM.

These binders were tested against HLA A0206 (human) (assay: 125I-probe competition, purified HLA).
CLYLHIQSL (modifications not checked) [HPV16.E1.259] was tested, and the IC50 was 100 nM.
FVYIPLFLI (modifications not checked) [HPV16.E5.66] showed an IC50 of 59 nM.
Work on GTLGIVCPV (modifications not checked) [HPV16.E7.85.V9] yielded an IC50 of 33 nM.
Binder YTNWKFIYL (modifications not checked) [HPV31.E2.131] has an IC50 of 84 nM.
In the case of FLLCFCVLL (modifications not checked) [HPV31.E5.15], the IC50 is reported as 2.6 nM.
Binder FIYIPLFVI (modifications not checked) [HPV31.E5.66] has an IC50 of 8.1 nM.
